These are literature values, as cited in PMC3930863.

Data set [1] deals with InlC (Listeria monocytogenes) (UniProt P71451). Kind of data set: isothermal titration calorimetry. (In ITC the heat of successive injections is recorded.)
Data set [2] has as its target N-WASP (Homo sapiens). Briefly: isothermal titration calorimetry.

Sequence of UniProt P71451 (P71451 35-297): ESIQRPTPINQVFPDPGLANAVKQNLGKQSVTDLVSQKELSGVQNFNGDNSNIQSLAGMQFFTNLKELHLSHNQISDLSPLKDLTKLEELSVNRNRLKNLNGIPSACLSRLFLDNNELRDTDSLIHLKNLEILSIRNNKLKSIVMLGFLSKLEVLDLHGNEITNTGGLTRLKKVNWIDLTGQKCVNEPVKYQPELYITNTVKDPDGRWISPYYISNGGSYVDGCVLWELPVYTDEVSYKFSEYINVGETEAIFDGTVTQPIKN

For the substance Tuba SH3-6 (from UniProt Q6XZF7), the Kd in data set [1] is 5.4 µM; in data set [2] it was 46.5 µM.

By Kd is commonly meant the concentration at which binding is half-saturated.
